# In patent publication US20140179594A1, “STREPTOCOCCUS BACTERIOPHAGE LYSINS FOR TREATMENT OF GRAM POSITIVE BACTERIA IN COMPANION ANIMALS AND LIVESTOCK” (priority 2011, published 2014):
# B1: ΔPlySs1: truncated PlySs1 lysin with N-terminal enzymatic and central binding domains, N-terminal 254 amino acids, SEQ ID NO:2 (protein, listed as Streptococcus suis)
# chain: MTINLETSIRWMSDRVGKVSYSMDYRNGPNSYDCSSAVYYALMAGGAISAGWAVNTEYMHDWLIRNGYVLVAENKPFNAQRHDVCILGKRGYSSGAGGHVVIFVDNVNVIHCNYARNGISIDNYNQVHRGMYYYLYRPANQPSISNKSLDQLVKETLAGVHGNGDTRKASLGSQYEAVMAVINGKASASEKSDEELAREVLAGKHGAGEDRKRSLGPRYEPVQAKVNELLKAKEKPSETAKNEPQTVQFKEDGDL
# What was measured:
# Assay in all cases: ΔPlySs1 OD600 lysis, 1 hr
# Assay type in all cases: cell-based
# M. luteus 4698 = tested on: M. luteus 4698
# S. pyogenes D471 = tested on: S. pyogenes D471
# S. simulans TNK3 = tested on: S. simulans TNK3
# S. pyogenes A486 = tested on: S. pyogenes A486
molecule,measurement,setting,value
B1,1-hour treated/untreated OD600-ratio,M. luteus 4698; 6.5 μg/ml,0.84
same,1-hour treated/untreated OD600-ratio,M. luteus 4698; 13 μg/ml,0.90
same,1-hour treated/untreated OD600-ratio,M. luteus 4698; 30 μg/ml,0.83
same,1-hour treated/untreated OD600-ratio,M. luteus 4698; 65 μg/ml,0.87
same,1-hour treated/untreated OD600-ratio,M. luteus 4698; 130 μg/ml,0.82
same,1-hour treated/untreated OD600-ratio,S. pyogenes D471; 6.5 μg/ml,0.39
same,1-hour treated/untreated OD600-ratio,S. pyogenes D471; 13 μg/ml,0.27
same,1-hour treated/untreated OD600-ratio,S. pyogenes D471; 30 μg/ml,0.17
same,1-hour treated/untreated OD600-ratio,S. pyogenes D471; 65 μg/ml,0.13
same,1-hour treated/untreated OD600-ratio,S. pyogenes D471; 130 μg/ml,0.09
same,1-hour treated/untreated OD600-ratio,S. simulans TNK3; 6.5 μg/ml,0.96
same,1-hour treated/untreated OD600-ratio,S. simulans TNK3; 13 μg/ml,1.00
same,1-hour treated/untreated OD600-ratio,S. simulans TNK3; 30 μg/ml,1.00
same,1-hour treated/untreated OD600-ratio,S. simulans TNK3; 65 μg/ml,1.00
same,1-hour treated/untreated OD600-ratio,S. simulans TNK3; 130 μg/ml,0.96
same,1-hour treated/untreated OD600-ratio,S. pyogenes A486; 6.5 μg/ml,0.12
same,1-hour treated/untreated OD600-ratio,S. pyogenes A486; 13 μg/ml,0.13
same,1-hour treated/untreated OD600-ratio,S. pyogenes A486; 30 μg/ml,0.13
same,1-hour treated/untreated OD600-ratio,S. pyogenes A486; 65 μg/ml,0.11
same,1-hour treated/untreated OD600-ratio,S. pyogenes A486; 130 μg/ml,0.10
